PMC11098746 (2024)

B1: 33 (protein)
chain: SSNDKNKINKNNMPLQRGASNLKDINIHNVEKKSNMESVNNNINNAACSKNLNANKVPNVAHTGVNKKGETKNEEVEKEENENEEIEKEEIENEENQQNEEDENEENQQNEEDENEENQQMNVNVDVSAEKKNKELPEEKKELQKNSEKNINKEVIKDSNKDNTFNFHKNINTAFNKNKNIYNNNNNNNNNNKAFIEKKEEAIDMKKTHCSNNNKMCKYNNMNNHMSTNKNNNQIFEESKQNVNKPIYNLKSLGNNAFKNDEKYNENDYKNNHDDDKKKYTDDSNEENIYEERNQKILLIHLLKNIKELLNRQRQNFNNFLSFLSENYQSYEKFYKSQKYQNGKNYIDKLDQQGELKNVAVVTHSFLDMSKAANGKKDKNGVFVKLMNDQNDDGDDTKDGDDTKDEDDHKNEDDHKNEDDHKNEDDHKNEDDHKNGDDNKNGDDHKNGDDNKNGDDDNGKKSHDISDIKNIIDTILQSDDITDEQKKYLEIIKKILDLEEDVLNKEKEQLQLNKNIIEVLMGKSDELRNIAVNLKNGNGDNEASQRVDLAQNIVSNLLNFAVQLKNTGNIVYNNIQGQGELLQSIEKNIDKAENDLKKSTSVNTAFTPKNVPNTEQNDQETQTDDDINDADIDENNNANDKNNCHMYKKNNCHMYKKNNCKKYFLNSHYNNYLCKKQKKYNKNDMGNKQKDNKKFKLNEAMKNHFYNIFVKETVMLKKLYKVLFELF
modifications: bait human Fc-tagged dimer
B2: 66 (protein)
chain: KIISCVIQKNPILHLWKIYSFQKCPHNYYCEQESLKKKKCPPNSIKTIYDGTINDCLCLPGYYLKGNIQTCIPCEKGSYKNTISNDACIKCPINFATLFETSKSVYDCVCRKGYYFSWNTNIDTNDIEKKNIYNNNINSIYRNKNEIKLIKELEEEYAFNVEKKRKNKHKFILHKKLNNRYRENIHKKQISLKRKIKFLNEQKEINNHLNFLHVNEILNIAFFNDNQNYIYKNKNKQENDANIEINPVSKQTSLHSNNIANKYMRNNFLQINEKLYINNANNNYNEYIHKAQCTKCPRKMFCPGYWLENYENEIHHPPIYCPKGSLILGTTIESTDIHKCICRKGYSINLAIKPNRNKNVNVNDNDNGNNNNNANNNNNNANGNSATLNNNNNMCVMCKEGYYKDVIDNSVCAGLCIEFSTSFKGSISKKQCFCTVGKYMIQDEKDENKCINCAKGSICIGGFKFKSLRELIKNQYYINLNIYDHSIPLPKKGYFATFQINHEDFKWKPLNSLHIEINNYEKGNIIITDKIILNVFHKKLHLINIGEKNKYDQADQGIYIKKNLNNNAFIHNNNNIKYIVEESKHLRDRTMANIPNEPILVNEKLEPIIYKNNFLMIDRIPDFHLCPISNRCMGTSSNLCFKGSEGYLCNNCANSYDVIHFRSQCIKCRKKKTEM
modifications: bait human Fc-tagged dimer
B3: 15 (protein)
chain: MAFFSIFIILNFFMLSLTSSLGNGFLHSSITFSNDFCKGMNLHFLISAEEIDSKFFLNKMLLLILGGSSYMRYSKENYFSVSIYDKKLVYKNIKKIENIQGASYYEQLQSAFKKHIKPSARRTNLYESLKEYYEKYIIGNKNIKKSKNIIIIVKKFTSDDLSEYHENLNRYIKEIRSKDVGIYFFSDDSIYSKNIILNIAESGYNMEVQYPIAHFVSESYRANDLFGVKKFCYQLLHGATCKSYNEWSEWSGPCEFERRQRIIPLKITNIESTNFRSHYDPSCRNVFDYSMSIKEDFRVNCKNSIYECRGICDKGYKFKPYAKSNEIVESYEECNDLPPCTRDQRKNGDHTLYADVILNSLLSESSIQQIRDRDDRALIEKDMP
modifications: bait human Fc-tagged dimer
B4: 50 (protein)
chain: ANAFYVDNGQEMLIKEKEHYSSDSEHHKEESASIGNLNVFFPAENYHFSTYMGFDRRSFLPSNEIELEKMIGANFANEVKNYCSRQNVAQKIGDYLNIAFEYSRALEELRSEMILDFNKRKHLTNNADDTILHMIENAEKRKNDPNYKEAYENKDYANNANIFMNEYSNPLSTKYNKILKEYLCHLFVNNPGTKPLERLYYNSLALGELVEPIRNKFKSLASSTIDFNYEIHMASASNIYLLAHFLVLSLAYLSYNEYFTTGTKSFYSLPTILTANSDNSFFMLNEMCNIHYNPNKNFKKDITFIPIESRPKRTTTFYGERRLTCDLLELVLNAIMLININEINNVFSNNNVDGYENSLSFSHNAIRIFSKVCPKINNDNVLKCEFEESSLYNPKIIKNDASEKSSQKNLKKAFDLLRTYAEIEGHSAEGSTSPYYVSLILDDMKYNDFYKYTLWYEPRELIYGDIRGMQMKKKKKTKYIYNDFMKKSTQLKKKLIKNDLKYNLKSKGLVFLYAMIDKYGSILNKAQKAKVQFLNSASSIRYYLYLNKVIFKSAKTYLDIMKRVLEELQTSTNTPLKFLVRGNYIENINNIARNDNMFYANLFVLTALSRRDPVKDYYNDKRKMLSATLAEKFANSASMLIPHKLRKLVVSMKKGLLKKKLLTSLAKVKLLQHIPAHMLENIASSIRFTTHTIATMQIIQNAKYMSKHNFAQYDSKGMLARQIFTKGGFAEYADNLMAKWFSKGFEEYKREQIENFKMENSIDSELKDSEREDENDASEESAKKKLQDLQLEEREKMKKENSLLFNQADKWDQFINKELVRALGLWLEFNDNPANAASFVYKVVEDSKHLLENNIDNNIIFSRTVKPTKQTAFRRFFNKILSLGNMLLRKPSFRVEHALWFGATIDIKKAFILLEKVSELHKMLNNQDESWLINEAFIEIVDHVVDLSTYKHVREPFGVARNPGMMAINPKYAELSHENRLRELQNSMCADHCSSVWKVISSFALHHLKNPDSLHTYESKFSKNSFGNKIDDKDFVHNFKMILGGDAVLHYFDNLLPKTMKKDLKAMKYGVSLTSAYSLKLTKIIFSQMQLPYLSQMFYMQAPYFGHFIGKWQKKRQQSRLKEIMSFMTLGSLSAYTLFSAMDITQQAKDIGAGPVASCFTTRMSPPQQICLNSVVNAALSTSTQSAMKCVFSV
modifications: bait human Fc-tagged dimer
B5: 80 (protein)
chain: INPATLIQNHLYMYQTNNAINEENIYNMKKFSKLPIAENTRNIRHSTNDLYYEHSLNLEKPNEHFTLHNIKLICQQIYHNQPNQLNLRILAVLLSTSYKQENIANIFQNLCNNGLSCLFTIQLSKNKAFVDQNKIVHLKIIDTDDLKRNKNNNIRHKITVYYICEDLKYKNQKQQESNEFKYVFNYEQLAFLKCENYLTVQVEKLVGINYNKEFHNLNPEYISFYCSQRVICNTHIEDLYKEDDKKRKNYIFYELTYRCVPPKVCSFCGNNAACKLEKLYNKEKEITQFYNNVEYNDAGVFDRLLLNKEEEEERNKASFVANLEYNAINYDIDDMITVGSNTYHILEICKCSKDYVQEGSSCVKKEKDKIYIRYAKK
modifications: bait human Fc-tagged dimer
B6: 75 (protein)
chain: NVVAPKSAEAVHTLTAKLDTENKAHQKYIDIINGVFSENMENFVFSITTSNGFTCSINKLDVIFDNKVTGMQKVFSDENVQYIKEASLEFKNNLLEYMKGVMPSENDFSNVRKEFQKVCVKYFSELRRKFFQIYRDPNNKNQNEDNVDNHMNIEEISQEFFSGFNPFGTMKIRKEQNPDLSQKDSLILNENNNDALTSADQKNNNMVPMENRAFSYSQQSSHVVSFDGHDEHVEQQEQHSGDNTQEDKDQLMDLPFNKDKVFSTFLKNVALLIEGNCAEAQQQAQEQTQEQTEEQEEEQNEKEIESDKQVQKDGEQKENDVQKKQKANAFTIQFSSSLSRKHISTTCNAASGNVFLRKGNKPFEHFNSPNFENMMKGVFGIIQNPFENGQPTFPFFKNINSISGIGNVDIPKNFMNDFLNNGNDQNTPISS
modifications: bait human Fc-tagged dimer
B7: 72 (protein)
chain: SNHIKSVNRCFIPFISEYIYKQKNRKNNIAYDSSNSHYNDKIIPCGNYNKQLKYKINFCRNLYFNNKNEYNRICSRNKLNFHNIQTDNTIYKPKKKYYEVGKVREKIKMYTLFKDDKINTLKCNEEESVTSETINKHDSSVKVKGRRKKNIASNENIMNPNNKAVSSINTNLADSSNNKNDNSLNSKKNDNTLNSKKNDNTLNSKKNDNTLNSKNNNNALNSKNNNNALNSKKSNNAYNDKHIDHIIPEGKNKINNNIDVKHNINNKLNEINEEPYEDTHNKEENSANKNDNDEKRKEENNNIARRYIKNDQMSYNNINTNSNEYDKNAATLDETYIGKTFEGYVYSVNKNAACIKLKNINKYGLLFKNKANLGDDIEDMNDFFEKDQPVHVKILGINTKKNIFYLGNIIKYNENIKLSKGEYSKGLITKVCDSYCFIKVLKNGATGYLHKSKLFCMNDKEKKNNDNQNYDNPNNDNPNYDNQNYDNQNYNNPNYDHPNYDNQNYDNQNYNNPNNDYSTSQLYNSDNLQMDFIYKLQFTKIFNIWDIIDVEILGTPQNDYKSNYILTIPRGSKTFKKILNYLNVLKENEDINNIQYKGDYIYSIDNNKNDNIIDSDINNHHINNKKKKKNLYDIQNNMNHAPFNKFHTEDEYLFNDHVQENVHTFYEKNKKYKITYDKENNHKMNKAYYLKKNKELPFNNKFKKIIKNIYDLPNTISLSMLSKTIKIPLASIKKYFIIHENKEYNSAYKINSEQIKRICQHFKIDCNVEQRDDNVVTKVNGATKDCQEKVFKNVAQDRLKEGEQERVIKVEAKIKNDEMVMQEQKDTKEEKHMDVQFIEEKDINVQHINVQDMDVQDMDVQDINVQDMDVQNINVQDINIQDMDVQNINNAITLNKATSCQTDESRDAPGGDQNEALDEKDSMEKSKEKKKKKGKSRKKNKDTNLALKSDSIQKSKTTLDDKKRNVVVTFIGHINHGKTSLFDYICKTNEQKKEYGLITQNIRAFKATVRNNFAFTLVDTPGHEAFMPMRSRGVKISDLSILVISGDEGIQEQTVECIKLIKEFNIKIIIAITKVDIPNVDVDRIINDLLYHDITTELNGGEIQVVECSIYKEESIDKLLDAIYLESEFLNLQTNPDKKHEQAQGVVLDSYIDKNGIVSINLLQNGVLNINDHFYTGSSYGKVKILKDHLNKNIKSAYPSDPIKIIGYNKNSVPVAGDKFYVVENEALAKEIAEHNKNKMLTMEINNFAYDQTNMNRYKDFIISRENKIGGSSGILGENNLKNDIDGNMARDDNMARDDNMASDDNMARDGNRANNDNIASDDNMANDYDKIKETKMYTNNKAFQKDDFLKIHLNNANENVINMDPSTHIGKNEIKTIYSNYIIKCDKQGSIEVLKNCMLKLQKEDSICKIKNKIIYADIGNVASSDIKYATSFNAAIIAFGVKLSNDIKGSKNSKGSKNHNNYPIIYSNVLYELIENVEKEMEKKLSKKPMGELKGTAQILKVFNIAKLGKVAGCIVKKGTISINSNIRILRNDKVIYMGKIISIKIVKEEKTQVTEADECGIGFDNFLDFEPNDIIEAYEN
modifications: bait human Fc-tagged dimer
B8: 34 (protein)
chain: TKKKVSVSEINFDSAVDDVQWCGNNHMTVLVKTVKGRLYRSSDGGKIWTNIAGNLADKENNKADPSSNHMNEMTTVDLIMVNSVNKNIVLIIGNQKNHYISEDSGETFRLLNYQNKINFWQFHSTKTHWALVSSWTEACYSNDDNSGECMQTLSLTKDLGRTFQLIDIYVVQFNWGDKESHLEDTIYYTRHKNRNGHQQRFSGWSKDVDFVATHNFGKSVDVLVKQGNKFLISNGYIFVAKLNDVIKQTVNMMVSTDGGKTFNKANLPENIHEKSYTVLDTSEGSIMLHVNHGTSSEKINTGNVYISDASGLNYALSLPNNIRTSSGECEFDRVLSLDGVYIANFLDVNNEIKDEDLRFQNFKSAIEEDIAPFETNTEKRKKQYNKGKNEDAVRTVISFNKGGEWSYLKAPKVDSRGNKYECGDNCYLHLHGITNYHQYAPFYSIENAVGIIMGTGNVGSHLRYESDEVNTFLSRDGGVTWIEAHKGPYIYEYGDYGGLIVMADDLRKTNQIVFSWNEGQSWFDFELGQFSIDVDNIVAEPNSASVEFLVYGTRNDVGVLYHLDFNALGQPLCKGLWAADSVSSDYETWSPTSGNFNDKCILGRKITYTRRKQTSECFNGKDLKRTVDKKPCECTPEDYECETGFTRKIGSYECKPNDPTLTIEGCTSSSYFYANAYRKVPGDICVNGWVPEKVPVPCPSYAPFNKAAK
modifications: bait human Fc-tagged dimer

The binders below were run against FGFR4 ectodomain (Homo sapiens, UniProt P22455) (assay: AVEXIS normalised luminescence).

Binder | binding score
B1 | 1.23
B2 | 0.776
B3 | 0.902
B4 | 1.17
B5 | 1.04
B6 | 1.05
B7 | 1.02
B8 | 0.648
